Experimental data taken from patent US20210300974, “ARTIFICIAL TRANSCRIPTION FACTORS COMPRISING A SLIDING DOMAIN AND USES THEREOF” (THE BROAD INSTITUTE, INC., published 2021).
Primed or numbered codes have the meaning given here. Ends that are not written are not given here. TMR(3) = tetramethylrhodamine (TMR) label conjugated to the Cys side chain

Assays:
[1] = tested on: T1, TMR-beta3(RRRK)-NH2 (synthetic); assay: FP; conditions: 2 mM NaCl, pH 7.4
T1 sequence: RRRK

[2] = tested on: T2, TMR-KRRR (C-terminal carboxylate) (synthetic); assay: FP; conditions: CITED (Xiong et al); pH 7.4; cited from earlier work
T2 sequence: KRRR

TMR-RRRR-NH2 (synthetic) = tested on: T3, TMR-RRRR-NH2 (synthetic); assay: FP; conditions: 2 mM NaCl, pH 7.4
T3 sequence: RRRR

TMR-RRRK-NH2 (synthetic) = tested on: T4, TMR-RRRK-NH2 (synthetic); assay: FP; conditions: 2 mM NaCl, pH 7.4
T4 sequence: RRRK

[3] = tested on: T5, TMR-beta3(KRRR)-NH2 (synthetic); assay: FP; conditions: 2 mM NaCl, pH 7.4
T5 sequence: KRRR

[4] = tested on: T6, TMR-(RL)4-NH2 (synthetic); assay: FP; conditions: 2 mM NaCl, pH 7.4
T6 sequence: RRRR

[5] = tested on: T7, TMR-RRRR (C-terminal carboxylate) (synthetic); assay: FP; conditions: CITED (Xiong et al); pH 7.4; cited from earlier work
T7 sequence: RRRR

TMR-KRRR-NH2 (synthetic) = tested on: T8, TMR-KRRR-NH2 (synthetic); assay: FP; conditions: 2 mM NaCl, pH 7.4
T8 sequence: KRRR

[6] = tested on: TMR-(RS)4-NH2 (synthetic); assay: FP; conditions: 2 mM NaCl, pH 7.4
TMR-KKKK-NH2 (synthetic) = tested on: T9, TMR-KKKK-NH2 (synthetic); assay: FP; conditions: 2 mM NaCl, pH 7.4
T9 sequence: KKKK

[7] = tested on: T10, TMR-(CH2)5-KRRR-NH2 (synthetic); assay: FP; conditions: 2 mM NaCl, pH 7.4
T10 sequence: KRRR

KRRRC(-TMR)-NH2 = biological target: T11, KRRRC(-TMR)-NH2 (synthetic); assay: FP; 2 mM NaCl, pH 7.4; text p253 states 46 ± 9; conditions: tags: TMR on Cys; free N-terminal amine; C-terminal amide
T11 chain: KRRRC(TMR(3))-NH2

Question: For “GACGACTAGGACGACGACGAGGATGACGAC (double strand) [30-mer dsDNA]”, which Kd [1] is on record?
Answer: Its Kd is 49 nM.

Question: What about the Kd [2] of the same molecule?
Answer: Its Kd is 197 nM.

Question: And the Kd (TMR-RRRR-NH2 (synthetic))?
Answer: The Kd was 31 nM.

Question: And the Kd (TMR-RRRK-NH2 (synthetic))?
Answer: Its Kd is 28 nM.

Question: What about the Kd [3] of the same molecule?
Answer: The Kd was 41 nM.

Question: And the Kd [4]?
Answer: Its Kd is 13 nM.

Question: What about the Kd [5] of the same molecule?
Answer: Its Kd is 236 nM.

Question: And the Kd (TMR-KRRR-NH2 (synthetic))?
Answer: The Kd was 46 nM.

Question: And the Kd [6]?
Answer: Its Kd is 129 nM.

Question: What about the Kd (TMR-KKKK-NH2 (synthetic)) of the same molecule?
Answer: Its Kd is 53 nM.

Question: What about the Kd [7] of the same molecule?
Answer: The Kd was 46 nM.

B1: 30-mer dsDNA (dsDNA)
DNA 1: GACGACTAGGACGACGACGAGGATGACGAC
DNA 2: GTCGTCATCCTCGTCGTCGTCCTAGTCGTC
Question: Which Kd (KRRRC(-TMR)-NH2) does the source give for B1 here?
Answer: The Kd was 54 nM.
